Source: article PMC5704897 (Molecular cell, 2006)
Like-named read-outs stand apart in the source and are kept apart here.

Experiments:
Assay in all cases: native MS
human Cdc37 (human) [1] = target: human Cdc37 (human) (UniProt Q16543)
human Cdc37 (human) [2] = target: human Cdc37 (human) (UniProt Q16543); remark: listed apart in the source
[3] = target: His6-tagged kinase domain of B-Raf (human) (UniProt P15056)
[4] = target: T1, human Cdc37 (human), Q16543; settings: remark: other sources report otherwise
T1 chain: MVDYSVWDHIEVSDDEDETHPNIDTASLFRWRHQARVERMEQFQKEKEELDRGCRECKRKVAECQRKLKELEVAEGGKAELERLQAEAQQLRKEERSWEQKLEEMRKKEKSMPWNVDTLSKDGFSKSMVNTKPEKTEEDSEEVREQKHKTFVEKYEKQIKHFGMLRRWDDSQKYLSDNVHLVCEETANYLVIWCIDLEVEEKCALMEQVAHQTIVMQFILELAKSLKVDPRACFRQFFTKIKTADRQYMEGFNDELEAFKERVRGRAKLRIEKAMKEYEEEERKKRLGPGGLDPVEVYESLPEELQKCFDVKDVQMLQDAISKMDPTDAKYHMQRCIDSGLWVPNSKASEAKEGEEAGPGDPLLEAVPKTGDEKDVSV

[5] = target: His6-tagged kinase domain of B-Raf (human, UniProt P15056 457-717)
Sequence of His6-tagged kinase domain of B-Raf (P15056 457-717): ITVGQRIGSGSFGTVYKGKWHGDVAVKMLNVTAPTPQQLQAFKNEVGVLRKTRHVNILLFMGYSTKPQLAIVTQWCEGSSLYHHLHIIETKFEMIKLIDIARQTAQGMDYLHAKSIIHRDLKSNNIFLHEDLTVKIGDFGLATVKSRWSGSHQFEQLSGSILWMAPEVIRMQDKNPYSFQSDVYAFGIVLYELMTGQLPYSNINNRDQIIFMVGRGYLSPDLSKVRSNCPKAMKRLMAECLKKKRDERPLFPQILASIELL

Sequence of His6-tagged kinase domain of B-Raf (human) (P15056 457-717): as above

Molecule “Spodoptera frugiperda Hsp90 homologue (natural protein)” has a stoichiometry N (Hsp90 per Cdc37) (human Cdc37 (human) [1]) of 2, a stoichiometry N (Hsp90 per Cdc37) (human Cdc37 (human) [2]) of 2 and a stoichiometry N (Hsp90 per B-Raf) [3] of 2.

B1: human Cdc37, Q16543 1-378 (natural protein)
chain: MVDYSVWDHIEVSDDEDETHPNIDTASLFRWRHQARVERMEQFQKEKEELDRGCRECKRKVAECQRKLKELEVAEGGKAELERLQAEAQQLRKEERSWEQKLEEMRKKEKSMPWNVDTLSKDGFSKSMVNTKPEKTEEDSEEVREQKHKTFVEKYEKQIKHFGMLRRWDDSQKYLSDNVHLVCEETANYLVIWCIDLEVEEKCALMEQVAHQTIVMQFILELAKSLKVDPRACFRQFFTKIKTADRQYMEGFNDELEAFKERVRGRAKLRIEKAMKEYEEEERKKRLGPGGLDPVEVYESLPEELQKCFDVKDVQMLQDAISKMDPTDAKYHMQRCIDSGLWVPNSKASEAKEGEEAGPGDPLLEAVPKTGDEKDVSV
modifications: here or on the partner: phosphoserine at 13 (pSer 13); phosphoserine at 13 (pSer 13)
B1 showed a stoichiometry N (Cdc37 chains in the oligomer) [4] of 2.

B2: human Cdc37 (natural protein, UniProt Q16543 1-378, looked up)
chain: MVDYSVWDHIEVSDDEDETHPNIDTASLFRWRHQARVERMEQFQKEKEELDRGCRECKRKVAECQRKLKELEVAEGGKAELERLQAEAQQLRKEERSWEQKLEEMRKKEKSMPWNVDTLSKDGFSKSMVNTKPEKTEEDSEEVREQKHKTFVEKYEKQIKHFGMLRRWDDSQKYLSDNVHLVCEETANYLVIWCIDLEVEEKCALMEQVAHQTIVMQFILELAKSLKVDPRACFRQFFTKIKTADRQYMEGFNDELEAFKERVRGRAKLRIEKAMKEYEEEERKKRLGPGGLDPVEVYESLPEELQKCFDVKDVQMLQDAISKMDPTDAKYHMQRCIDSGLWVPNSKASEAKEGEEAGPGDPLLEAVPKTGDEKDVSV
modifications: phosphoserine at 13 (pSer 13)
B2 was tested, and the “stoichiometry N” value [5] was 1 Cdc37 per B-Raf.
